Laboratory results published in patent US20230295310A1 (ABCELLERA BIOLOGICS, published 2023).

Legend:
cynomolgus monkey CD3 = target: T1, cynomolgus monkey CD3 (cynomolgus monkey, UniProt Q95LI5 22-198; Q95LI8 22-171; Q95LI7 23-181); assay: flow cytometry, cyno primary T cells
T1 construct: whole, on cells; CD3 on purified cynomolgus monkey CD3 pan T cells; also called cyno CD3; CD3 on cyno primary T cells
In short: (§1)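 25 nM Ab in FACS buffer (PBS+2% FBS), 30 min at 4° C on CD3+ cells; flow cytometry MFI normalized to isotype = FOI; cutoff ≥10 for positive.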

human CD3 = target: T2, human CD3 (human, UniProt P07766 23-207; P04234 22-171; P09693 23-182); assay: flow cytometry, Jurkat cells
T2 construct: whole, on cells; also called CD3 on Jurkat cells; CD3 on human primary T cells
T2 sequence (P07766 23-207, chain 1 of 3): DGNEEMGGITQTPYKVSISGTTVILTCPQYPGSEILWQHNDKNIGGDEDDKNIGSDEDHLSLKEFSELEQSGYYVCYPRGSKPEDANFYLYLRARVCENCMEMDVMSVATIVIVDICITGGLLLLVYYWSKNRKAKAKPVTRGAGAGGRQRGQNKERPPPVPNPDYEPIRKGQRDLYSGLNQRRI
T2 sequence (P04234 22-171, chain 2 of 3): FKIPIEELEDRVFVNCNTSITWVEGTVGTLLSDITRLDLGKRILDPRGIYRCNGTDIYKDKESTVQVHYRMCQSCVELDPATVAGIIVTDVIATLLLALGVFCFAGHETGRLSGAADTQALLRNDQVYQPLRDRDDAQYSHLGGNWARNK
T2 sequence (P09693 23-182, chain 3 of 3): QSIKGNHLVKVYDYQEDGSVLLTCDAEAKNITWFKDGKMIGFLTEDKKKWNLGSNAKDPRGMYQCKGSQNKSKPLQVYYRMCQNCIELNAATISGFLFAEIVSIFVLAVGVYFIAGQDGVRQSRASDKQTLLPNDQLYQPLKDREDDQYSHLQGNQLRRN
Experimental: Purified antibodies were confirmed to bind CD3 expressed on cells using the CytoFLEX S or LX flow cytometers (Beckman Coulter). Antibodies were diluted to 25 nM in FACS buffer (PBS+2% FBS) and were incubated with CD3-expressing cells for 30 minutes at 4° C. […] The median fluorescence intensity of the binding signal for each antibody was normalized to the isotype control to obtain a fold over isotype value. An antibody with a fold over isotype (FOI) of ≥10 was considered to be positive for binding.

[1] = target: T3, cynomolgus monkey CD3 expressed on primary T cells (cynomolgus monkey, UniProt Q95LI5 22-198; Q95LI8 22-171; Q95LI7 23-181); assay: flow cytometry, 25 nM
T3 construct: whole, on cells; CD3 complex on purified cynomolgus monkey T cells; also called cyno CD3
T3 sequence (Q95LI5 22-198, chain 1 of 3): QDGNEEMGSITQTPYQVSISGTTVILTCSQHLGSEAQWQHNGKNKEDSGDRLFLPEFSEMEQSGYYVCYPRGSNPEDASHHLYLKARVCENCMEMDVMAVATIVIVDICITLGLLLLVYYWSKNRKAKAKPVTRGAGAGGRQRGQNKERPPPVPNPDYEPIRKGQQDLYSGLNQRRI
T3 sequence (Q95LI8 22-171, chain 2 of 3): as the sequence (P04234 22-171, chain 2 of 3) above, with I5V, N15K, I20V, S32T, D33N, I34N, T64A, S74N, V83L, H141R counted along it
T3 sequence (Q95LI7 23-181, chain 3 of 3): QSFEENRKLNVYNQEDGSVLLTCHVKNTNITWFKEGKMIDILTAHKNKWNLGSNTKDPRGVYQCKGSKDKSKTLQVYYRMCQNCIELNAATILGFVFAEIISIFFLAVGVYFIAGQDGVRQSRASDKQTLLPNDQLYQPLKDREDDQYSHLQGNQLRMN
In short: as §1

[2] = target: T4, human CD3 expressed on cells (human, UniProt P07766 23-207; P04234 22-171; P09693 23-182); assay: flow cytometry, 25 nM
T4 construct: whole, on cells; CD3 complex on Jurkat cells and on human primary T cells
T4 sequence (P07766 23-207, chain 1 of 3): as the sequence (P07766 23-207, chain 1 of 3) above
T4 sequence (P04234 22-171, chain 2 of 3): as the sequence (P04234 22-171, chain 2 of 3) above
T4 sequence (P09693 23-182, chain 3 of 3): as the sequence (P09693 23-182, chain 3 of 3) above
In short: as §1

[3] = target: T5, cynomolgus monkey CD3 expressed on cyno primary T cells (cynomolgus monkey, UniProt Q95LI5 22-198; Q95LI8 22-171; Q95LI7 23-181); assay: flow cytometry, 25 nM, cyno primary T cells
T5 construct: whole, on cells; CD3 complex on purified cynomolgus monkey CD3 pan T cells; also called cyno CD3
T5 sequence (Q95LI5 22-198, chain 1 of 3): as the sequence (Q95LI5 22-198, chain 1 of 3) above
T5 sequence (Q95LI8 22-171, chain 2 of 3): as the sequence (P04234 22-171, chain 2 of 3) above, with I5V, N15K, I20V, S32T, D33N, I34N, T64A, S74N, V83L, H141R counted along it
T5 sequence (Q95LI7 23-181, chain 3 of 3): as the sequence (Q95LI7 23-181, chain 3 of 3) above
In short: as §1

[4] = target: T6, human CD3 expressed on cells (Jurkat cells; human primary T cells) (human, UniProt P07766 23-207; P04234 22-171; P09693 23-182); assay: flow cytometry, 25 nM, Jurkat cells
T6 construct: whole, on cells
T6 sequence (P07766 23-207, chain 1 of 3): as the sequence (P07766 23-207, chain 1 of 3) above
T6 sequence (P04234 22-171, chain 2 of 3): as the sequence (P04234 22-171, chain 2 of 3) above
T6 sequence (P09693 23-182, chain 3 of 3): as the sequence (P09693 23-182, chain 3 of 3) above
In short: as §1

[5] = target: T6, human CD3 expressed on cells (Jurkat …); assay: flow cytometry, 25 nM, human primary T cells
In short: as §1

T1 sequence (Q95LI5 22-198, chain 1 of 3): as the sequence (Q95LI5 22-198, chain 1 of 3) above
T1 sequence (Q95LI8 22-171, chain 2 of 3): as the sequence (P04234 22-171, chain 2 of 3) above, with I5V, N15K, I20V, S32T, D33N, I34N, T64A, S74N, V83L, H141R counted along it
T1 sequence (Q95LI7 23-181, chain 3 of 3): as the sequence (Q95LI7 23-181, chain 3 of 3) above

Binder | Cyno primary T Cell Binding (FOI) [1] [FOI] | Human primary T Cell Binding (FOI) [2] [FOI] | Jurkat Cell Binding (FOI) [2] [FOI] | Binding (FOI) [3] [FOI] | Binding (FOI) [4] [FOI] | Binding (FOI) [5] [FOI] | further results
mAb 324 (antibody, V domains shown) VH: QVQVVQSGAEVKKPGASVKVSCKTSGYTFTDYYIHWVRQAPGQGLEWMGWIYPKSGRTDNAQNFKGRVAMTRDTSINTAYLELNRLRSDDTAIYYCARLEELVFDYWGQGTLVTVSS VL: DIQMTQSPSSVSASVGDRVTITCRASQVISRWLAWYQLKPGKAPKLLIYEASSLQSWVPSRFSGSGSGTDFTLTISSLQPEDFATYYCQQANSFPWTFGQGTKVEIK |  |  |  |  |  |  | binding result (cynomolgus monkey CD3): no binding (tested: FOI ≥10 = positive; 25 nM); binding result (human CD3): no binding (tested: FOI ≥10 = positive; 25 nM)
mAb 325 (antibody, V domains shown) VH: QVQVVQSGAEVKKPGASVKVSCKTSGYTFTDQYIHWVRQAPGQGLEWMGWIYPKSGRTDNAQKFKGRVAMTRDTSINTAYMELSSLRSDDTATYYCARLEELVFDYWGQGTLVTVSS VL: not shown |  |  |  |  |  |  | binding result (cynomolgus monkey CD3): no binding (tested: FOI ≥10 = positive; 25 nM); binding result (human CD3): no binding (tested: FOI ≥10 = positive; 25 nM)
mAb 319 (antibody, V domains shown, VH and VL only) VH: EVQLLESGGGLLQPGGSRRLSCAATEFTFRSYAMSWVRQSPGKGLEWVSVISGRGDNTYYADSVKGRFTISRDNSKNTLYLQMNSLRAEDTAVYYCAKMYSYYYYYMDVWGKGTTVTVSS VL: SYELTQPLSVSVALGQTARITCGGNNIGSKNVHWHQQKPGQAPVLVIYRESNRPSGIPERFSGSNSGNTATLTSSRAQAGDEADYYCQVWDSSTAVFGGGTQLTAL |  |  |  |  |  |  | binding result (cynomolgus monkey CD3): no binding (tested: FOI ≥10 = positive; 25 nM); binding result (human CD3): no binding (tested: FOI ≥10 = positive; 25 nM)
mAb 69 (antibody, V domains shown) VH: QMLLVESGGGVVQPGRSLTLSCAASGFTFRSYGMHWVRQAPGRGLEWVAIIWYDGSTEYYADSVKGRFTISRANSKNMLYLQMNSLRAEDTAVYYCAAFDYTNSFDIWGQGTMVTVSS VL: DIVVTQTPLSSPVTLGQPASISCRSSQRFVHSDGNTYLSWLQQRPGQPPRLLIYKISNRISGVPDRFSGSGAGTDFKLKISRVEAEDVGIYYCMQATQFPYTFGQGTKLEIK | 245 | 123 | 145 |  |  |  | 
mAb 70 (antibody, V domains shown) VH: QGQLVESGGGVVQPGRSLRLSCEASGFTFRSYGMHWVRQPPGKGLEWVAIIWYDGGKKYYGDSVKGRFTISRDNPKNTLYLQMNSLRPEDTAVYYCMAYDYSNGFDIWGQGTMVTVSS VL: DIVMTQTPLSSPVTLGQPASISCRSSQSFVHSDGSTYLSWLQQRPGQPPRLLIYKISNRFSGVPDRFSGRGAGTDFTLKISRVEAEDVGIYYCMQNTQFPYTFGQGTKLEIK | 238 | 131 | 140 |  |  |  | 
mAb 158 (antibody, V domains shown) VH: EVQLVESGGGLVQPGRSLRLSCAASGFTFADYTMHWVRQVPGKGLEWVSGISWNSGSVDYADSVKGRFTISRDNAKKTLYLQMNSLRAEDTALYYCAKDSSGYGHYYFYYLDVWGKGTTVTVSS VL: EIVMTQSPATLSVSPGERATLSCRATQSVSSNLAWYQQKPGQAPRLLIYSTSTRATGIPARFSGSRSGTEFTLTISSLQSEDSAVYYCQQYNNWPHFGQGTRLEIK | 10.9 | 164 | 117 |  |  |  | 
mAb 323 (antibody, V domains shown, VH and VL only) VH: QVQVVQSGAEVKNPGASVKVSCKASGYTFTGYYMHWVRQAPGQGLEWMGWIYPNSGRTNYAQKFQGRVTMTRDTSISTAYMELSRLRSDDTAVYYCARLEQLVFDYWGQGTLVTVSS VL: not shown |  |  |  |  |  |  | binding result (cynomolgus monkey CD3): no binding (tested: FOI ≥10 = positive; 25 nM); binding result (human CD3): no binding (tested: FOI ≥10 = positive; 25 nM)

Continued, in another order:

Cyno primary T Cell Binding (FOI) [1] [FOI] | Human primary T Cell Binding (FOI) [2] [FOI] | Jurkat Cell Binding (FOI) [2] [FOI] | Binding (FOI) [3] [FOI] | Binding (FOI) [4] [FOI] | Binding (FOI) [5] [FOI] | Binder | further results
41.6 | 116 | 104 |  |  |  | mAb 78 (antibody, V domains shown) VH: EVQLVESGGGLVQPGGSLRLSCAASGFTFSSYWMSWVRQAPGKGLEWVANIKQDGSEKYYVDSVKGRFTISRDNAKNSLYLQMNSLRAEDTAVYYCARDNSPSFYWYFDLWGRGTLVTVSS VL: DIQMTQSPSTLSASVGDRVTITCRASQSLSRWLAWYQQKPGKAPKLLIYKASSLESGVPSRFSGSGSGTEFTLTISSLQPDDFATYYCQQYYTYSRTFGQGTKVEIK | 
 |  |  | 158 | 128 | 172 | mAb 178 (antibody, V domains shown, VH/VL only) VH: EVQLVESGGGLVQPGRSLRLSCAASGFTFDDYTMHWVRQAPGKGLEWVSDISWNSGTIGYADSVKGRFTISRDNAKNSLYLQMNSLRAEDTALYYCVKDSSGYGHYYKYYMDVWGKGTTVTVSS VL: DIQMTQSPSSLSASVGDRVTITCRASQSISNYLNWYQQKAGKVPKVLIYGSSSLQSGVPSRFSGSGSGTDFTLTISSLQPEDFASYYCQQTYSSPLTFGGGTKVDFK | 
 |  |  | 90.2 |  |  | mAb 180 (antibody, V domains shown, VH/VL only) VH: EVNLVESGGGLVQPGRSLRLSCAASGFTFDDYTMHWVRQVPGKGLEWVSNISWNSGSLGYADSVKGRFTISRDNAKDSLYLQMNSLRVEDTALYYCAKDSSGYGHYNSYYMDVWGKGTTVTVSS VL: DIQMTQSPSSLSASVGDRVTITCRASQSIRNYLNWYQQKPGKAPKVLIYSASSLQSGVPSRFSGSGSGTDFTLTISSLQPEDFASFYCQQTYSTPITFGQGTRLEIK | 
26.1 | 262 | 98.5 |  |  |  | mAb 153 (antibody, V domains shown) VH: QVQLVESGGGVVQPGRSLRLSCAASGFTFSTYGMHWVRQAPGKGLEWVAVIWYDGSHKYYSDSVKGRFTISRDNSKNTLYLQMNSLRVEDTAIYYCARTGITGTTAYFYFDSWGQGTLVTVSS VL: not shown | 
 |  |  | 34 | 114 | 147 | mAb 176 (antibody, V domains shown, VH/VL only) VH: EVELVESGGGLVQPGRSLRLSCAASGFKFDDYTMHWVRLPPGKGLEWVSGISWNSGTIDYGDSVKGRFTISRDNAKNSLYLQMNSLRVEDTALYYCAKDTSGYGHYFYYYMDVWGKGTTVTVSS VL: DIQMTQSPSSLSASIGDRVSITCRTSQIINNYLNWYQQKPGKAPKVLIYSASSLQSGVPSRFSGSGSGTDFTLTINSLQPEDFATYYCQQSYNFPITFGQGTRLELK | 
 |  |  | 45.1 | 121 | 146 | mAb 177 (antibody, V domains shown, VH/VL only; the printed VL holds a letter U) VH: EVQLVESGGGLVQPGMSLRLSCAASGFTFDDYTMHWVRQSPGKGLEWVAGISWNSGTIGYGDSMKGRFTISRDNAKNSLDLQMNSLRVEDTALYYCAKDTSGYGHYYYYFMDVWGKGTTVTVSS VL: DIQMTQSPSSLSASIGDRVSITCRTSQIINNYLNWYQQKPGKAPKLLIYSASSLQSGVPSRFSGSGSGTDFTLTLSSLQPEDFATYFCQQSYNFPITFGQGTRLELK | 
 |  |  | 20.1 | 108 | 165 | mAb 171 (antibody, V domains shown, VH/VL only) VH: EVQLVESGGGLVQPGRSLRLSCAASGFTFADYTMHWVRQAPGQGLEWVSGISWNSGSIDYADSVKGRFIISRDNAKKTLYLQMNSLRAEDTALYYCAKDSSGYGHYYFYYLDVWGKGTTVTVSS VL: EIVMTQSPATLSVSPGERATLSCRASQSVSSNLAWYQQKPGQAPRLLIYSTSTRATGIPARFSGSRSGTEFTLTISSLQSEDSAVYYCQQYNNWPHFGQGTRLEIK | 
 |  |  | 54.2 | 129 | 177 | mAb 179 (antibody, V domains shown, VH/VL only) VH: EVQLVESGGGLVQPGRSLRLSCAASGFTFDDYTMHWVRQTPGKGLEWVSDISWNSGSIGYADSVKGRFTISRDNAKNTLYLQMNSLRAEDTALYYCVKDSSGYGHYLYYYMDVWGKGTTVTVSS VL: DIQMTQSPSSLSASVGDRVTITCRASQSIRNYLNWYQQSPGRAPKLLIFSASSLQSGVPSRFSGSGSGTDFTLTISSLQPEDFVTYYCQQRYSTPITFGQGTRLEIK | 
12.2 | 101 | 101 |  |  |  | mAb 121 (antibody, V domains shown) VH: EVQLVESGGGLVQPGRSLRLSCATSGFTFADYTMHWVRQAPGKGLEWVSGISWNSGSIDYADSVKGRFTISRDNAKKSLYLQMNSLRAEDTALYFCAKDSSGYGHYYFYYLDVWGKGTTVTVSS VL: EIVMTQSPGTLSVSPGKRATLSCRASQSVSSNLAWYQQKPGQGPRLLIYSTSTRATGIPARFSGSGSGTEFTLTISSLQSEDSAVYYCQHYNNWPHFGQGTRLEIK | 
